The values that follow come from paper doi:10.1101/2023.11.28.564875 (bioRxiv, 2023).

Assay [1] concerns the target T1, GST-fused Cα-subunit of mouse PKA (GST-PKAC) (mouse, UniProt P05132 1-351). As to the kind of experiment: pull-down.
In assay [2] the target is T1, GST-fused Cα-subunit of mouse PKA …. As to the kind of experiment: pull-down. The source holds these as a separate data set.

B1: His8-DCRD-Myc (domain or fragment)
chain: RQFHGSASSLVEAVLISEGLGQFAQDPKFIEVTTQELADACDLTIEEMENAADDILSGGARQS
Usually Kd stands for a measure of binding affinity in units of concentration. Lower therefore signals a tighter complex. In general, IC50 refers to the concentration needed to halve the response being measured. Low values mean greater potency in that assay, high ones weaker potency in that assay. In assay [1], B1 showed a dissociation constant Kd of under 1000 nM. The molecule further came in with an IC50 in assay [2] of 880 nM.
